# Key:
# [1] = molecular target: FG domain comprising 52 GLFG 12mer repeat units; experiment: FG phase partitioning (confocal microscopy); FG domain phase-separated by dilution from guanidinium hydrochloride, then fluorescent probe added; 50 mM Tris/HCl pH 7.5, 250 mM NaCl, 1 mM IP6; scanned after 1 h; partition coefficient = signal in the FG particle : outside
# [2] = molecular target: disulfide-stabilized HIV-1 CA hexamer (CA-P1A, A14C, E45C, W184A, M185A) (HIV-1); experiment: SEC; Superdex 200 increase, 20 mM Tris/HCl pH 8.0, 150 mM NaCl, 100 µM IP6; peak fraction seen by negative-stain EM; disulfide-stabilised hexamer
Substance,partition coefficient (in:out) [1],stoichiometry N [2]
40 nm capsid spheres (CA-P1A/N21C/A22C) labelled with CA–EGFP (complex),> 300,
"capsid-like particles (CLPs) assembled from wild-type CA, with encapsulated mCherry (complex)",> 750,
"disulfide-stabilized HIV-1 CA hexamer (CA-P1A, A14C, E45C, W184A, M185A) (complex)",,6
mCherry,< 0.05,
